Measured values published in patent publication US20200079851A1 (University of Texas, published 2020).
Residue numbers refer to the chain shown, from its start.

B1: anti-LILRB4 rabbit monoclonal antibody #6 (antibody, V domains shown)
VH: QSVKESGGRLVTPGTPLTLTCTASGFSLSTYYIDWVRQAPGRGLEYIGVINPGGSAVYATWAKGRFTISRTSTTVDLKMTSLTTEDTATYFCARGWSRGDLWGQGTLVTISS
VL: ELDMTQTPSPVSAAVGGTVTIKCQSSQNVYDDDTLSWYQQKPGQPPKLLIYDASKLASGVPSRFKGSGSGTQFTLTISGVQCDDAATYYCLGVFHDAADNAFGGGTELEIK
notes: Rabbit mAb
B2: anti-LILRB4 rabbit monoclonal antibody #210 (antibody, V domains shown)
VH: EQSVEESGGRLVTPGTPLTLTCTVSGFSLSSYIMGWVRQARGKGLEYIGAINTDGATYYATWAKGRFTISRTSTTVHLKVTSPTTEDTATYFCARSLAPGDSNINLWGQGTLVTISS
VL: ELVLTQTPSPVSAAVGGTVTISCQSSESVYRNNRLAWYQQKPGQPPKRLIYLASTLASGVPSRFKGSGSGTQFTLTISDVQCDDAAAYYCAGDSGVGIIAFGGGTEVEIK
B3: anti-LILRB4 rabbit monoclonal antibody #156-1 (antibody, V domains shown)
VH: QSVKESEGDLVKPGASLTLTCRASGFSFSSDYNMCWVRQAAGKGLEWIACIGVGTSGKTAYATWAKGRFTISRSSSTTVALQMTSLTVADTATYFCARPSYGSGGEGGGSGLWGPGTLVTISS
VL: ELDLTQTPASVSEPVGGTVTIKCQASQSIHSDLAWYQQKPGQRPKLLIYVASYLASGVPSRFSGSGSGTEYTLTISDLECADAATYYCQSTYYGSDYVGGAFGGGTEVVVK
notes: Rabbit mAb
B4: anti-LILRB4 rabbit monoclonal antibody #129 (antibody, V domains shown)
VH: EQSVKESGGGLVKPGASLTLTCTASGFSFSSSYHMCWVRQAPGKGLEWIGCIATGYGSTYYASWAKGRFTISKTSSTTVTLQVPSLTAADTATCFCARGYYRYTSDSYGYFDLWGPGTLVTISS
VL: ELVLTQTASPVSAAVGGTVTVNCQASQSISSGYLSWYQQKPGQPPKLLIYYASRLASGVPSRFSGSGSGTEYTLTISGVQCDDAATYYCLYVSYDGTTTDNAFGGGTEVEIK
B5: anti-LILRB4 rabbit monoclonal antibody #71-1 (antibody, V domains shown)
VH: QSVEESGGGLVKPGASLTLTCTASGFSFSSSYHMCWVRQAPGKGLEWIGCIATGYGSTYYASWAKGRFTISKTSSTTVTLQVPSLTAADTATCFCARGYYRYTSDSYGYFDLWGPGTLVTISS
VL: B4 VL with V3D, D95S, E108D
notes: Rabbit mAb
B6: anti-LILRB4 rabbit monoclonal antibody #214 (antibody, V domains shown)
VH: QSVKESGGRLVTPGTPLTLTCTVSGFSLSSYWMHWVRQAPGKGLEWVGVVSVSGNFYYATWAKGRFTISKTSTTVDLKITSPTIEDTAFYFCTMSFALWGQGTLVTISS
VL: ELVMTQTASPVSAAVGGTVTINCQSSQSVYSNNNLGWLKQKPGQPPKELIYYASTLASGVPSRFKGSGSGTQFTLTISDLECDDAATYYCVGGYGCSSADCSVFGGGTEVEIK
notes: Rabbit mAb

Columns and labels:
[1] = biological target: T1, human LILRB4 (human, UniProt Q8NHJ6 22-259, limits assumed); test: ELISA
T1 construct: also called leukocyte immunoglobulin-like receptor subfamily B member 4

[2] = biological target: T1, human LILRB4; test: ELISA, OD450 against antibody concentration
[3] = biological target: T2, LILRB3 (human, UniProt O75022 24-443, limits assumed); test: cross-reactivity ELISA (FIG. 46)
T2 construct: also called leukocyte immunoglobulin-like receptor subfamily B member 3

[4] = biological target: T3, LILRB5 (human, UniProt O75023 24-458, limits assumed); test: cross-reactivity ELISA (FIG. 46)
[5] = biological target: T1, human LILRB4; test: ELISA, OD450 against antibody concentration; remark: listed apart in the source
[6] = biological target: T4, LILRB1 (human, UniProt Q8NHL6 24-458, limits assumed); test: cross-reactivity test on the LILRBs (ELISA per paragraph 433)
T4 construct: also called leukocyte immunoglobulin-like receptor subfamily B member 1

[7] = biological target: T5, LILRB2 (human, UniProt Q8N423 22-458, limits assumed); test: as above
T5 construct: also called leukocyte immunoglobulin-like receptor subfamily B member 2

[8] = biological target: T6, D2; test: matrix of binding to LILRB4 domain-Fc fusions (FIG. 47); ELISA per paragraph 433
T6 construct: also called LILRB4 D2-hIgG1-Fc; second Ig-like domain of LILRB4 as Fc fusion

[9] = biological target: T7, SR; test: as above
T7 construct: also called LILRB4 SR-hIgG1-Fc; stalk region of LILRB4 as Fc fusion

[10] = biological target: T1, human LILRB4; test: ELISA, OD450 against antibody concentration; remark: listed apart in the source
[11] = biological target: T1, human LILRB4; test: ELISA, OD450 against antibody concentration; remark: listed apart in the source
[12] = biological target: T2, LILRB3; test: cross-reactivity test on the LILRBs (ELISA per paragraph 433)
[13] = biological target: T3, LILRB5; test: as above
[14] = biological target: T1, human LILRB4; test: ELISA, OD450 against antibody concentration; remark: listed apart in the source
[15] = biological target: T1, human LILRB4; test: ELISA, OD450 against antibody concentration; remark: listed apart in the source

T5 sequence (Q8N423 22-458 limits assumed): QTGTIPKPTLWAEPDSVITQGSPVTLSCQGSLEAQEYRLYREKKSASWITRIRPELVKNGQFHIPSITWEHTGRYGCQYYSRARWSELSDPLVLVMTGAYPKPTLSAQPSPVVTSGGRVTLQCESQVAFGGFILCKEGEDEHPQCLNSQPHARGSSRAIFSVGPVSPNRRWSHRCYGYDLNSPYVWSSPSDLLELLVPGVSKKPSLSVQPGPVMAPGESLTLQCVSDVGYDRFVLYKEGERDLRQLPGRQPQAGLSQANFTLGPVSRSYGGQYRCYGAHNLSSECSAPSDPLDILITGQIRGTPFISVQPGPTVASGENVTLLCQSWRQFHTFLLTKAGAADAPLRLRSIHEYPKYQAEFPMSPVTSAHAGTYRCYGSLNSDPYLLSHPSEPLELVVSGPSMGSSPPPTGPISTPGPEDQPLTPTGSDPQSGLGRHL
T4 sequence (Q8NHL6 24-458 limits assumed): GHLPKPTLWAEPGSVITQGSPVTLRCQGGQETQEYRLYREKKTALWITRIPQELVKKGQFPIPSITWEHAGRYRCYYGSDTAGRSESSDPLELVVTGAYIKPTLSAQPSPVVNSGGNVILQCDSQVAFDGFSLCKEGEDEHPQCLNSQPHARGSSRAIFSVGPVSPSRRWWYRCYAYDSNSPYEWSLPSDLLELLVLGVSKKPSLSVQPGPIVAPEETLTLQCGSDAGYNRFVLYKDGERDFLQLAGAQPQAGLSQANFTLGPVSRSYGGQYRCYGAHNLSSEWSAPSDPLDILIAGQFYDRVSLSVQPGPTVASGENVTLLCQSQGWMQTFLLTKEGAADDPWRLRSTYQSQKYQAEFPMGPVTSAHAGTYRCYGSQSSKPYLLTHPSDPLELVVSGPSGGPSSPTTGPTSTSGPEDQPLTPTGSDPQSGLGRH
T7 sequence (fusion chain, as listed by the source): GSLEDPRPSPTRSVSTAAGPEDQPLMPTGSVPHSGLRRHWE
T3 sequence (O75023 24-458 limits assumed): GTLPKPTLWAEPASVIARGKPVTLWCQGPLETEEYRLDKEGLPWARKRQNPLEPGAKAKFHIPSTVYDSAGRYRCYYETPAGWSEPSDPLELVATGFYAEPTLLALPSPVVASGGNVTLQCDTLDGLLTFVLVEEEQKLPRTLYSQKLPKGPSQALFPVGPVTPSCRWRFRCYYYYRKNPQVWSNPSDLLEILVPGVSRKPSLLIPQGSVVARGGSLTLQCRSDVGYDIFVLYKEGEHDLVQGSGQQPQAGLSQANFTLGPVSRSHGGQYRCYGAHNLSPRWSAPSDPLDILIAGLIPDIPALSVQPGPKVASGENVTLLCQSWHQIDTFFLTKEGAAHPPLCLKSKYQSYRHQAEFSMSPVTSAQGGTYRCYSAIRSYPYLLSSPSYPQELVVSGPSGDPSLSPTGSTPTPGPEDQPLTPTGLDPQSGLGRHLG
T2 sequence (O75022 24-443 limits assumed): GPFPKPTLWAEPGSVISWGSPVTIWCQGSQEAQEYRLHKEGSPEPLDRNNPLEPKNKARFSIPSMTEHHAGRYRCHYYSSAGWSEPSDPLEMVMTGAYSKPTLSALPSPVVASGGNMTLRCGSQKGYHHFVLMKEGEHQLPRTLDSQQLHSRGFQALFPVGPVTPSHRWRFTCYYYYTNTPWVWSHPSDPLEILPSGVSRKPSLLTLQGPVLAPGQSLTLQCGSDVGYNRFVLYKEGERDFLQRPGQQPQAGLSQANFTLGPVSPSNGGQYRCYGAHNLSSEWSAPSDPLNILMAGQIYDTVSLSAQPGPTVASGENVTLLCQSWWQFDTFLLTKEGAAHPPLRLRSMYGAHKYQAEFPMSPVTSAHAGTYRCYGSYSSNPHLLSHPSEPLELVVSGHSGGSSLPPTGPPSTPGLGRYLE
T6 sequence (fusion chain, as listed by the source): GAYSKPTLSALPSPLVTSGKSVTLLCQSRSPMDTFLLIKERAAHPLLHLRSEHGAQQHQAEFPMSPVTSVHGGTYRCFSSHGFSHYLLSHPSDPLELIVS

Binder | EC50 [1] | binding result [6] | binding result [7] | binding result [8] | binding result [9] | also measured
B1 | 0.0767 nM |  |  |  |  | EC50 [2]: 0.0115 µg/mL
B2 | 0.0997 nM | no binding | no binding | no binding | no binding | binding result [3]: binds; binding result [4]: binds; EC50 [5]: 0.0149 µg/mL
B3 | 0.0828 nM |  |  |  |  | EC50 [10]: 0.0124 µg/mL
B4 | 0.0901 nM | no binding | no binding | no binding | no binding | EC50 [11]: 0.0135 µg/mL; binding result [12]: no binding; binding result [13]: no binding
B5 | 0.134 nM |  |  |  |  | EC50 [14]: 0.02 µg/mL
B6 |  |  |  |  |  | EC50 [15]: 0.00764 µg/mL
